# Patent publication US6248520, “Nucleic acid molecules encoding nuclear hormone receptor coactivators and uses thereof” (The Rockefeller University, dated 2001)
# T1: human thyroid hormone receptor α (TRα-1), intact (human, UniProt P10827-2)
# T1 sequence: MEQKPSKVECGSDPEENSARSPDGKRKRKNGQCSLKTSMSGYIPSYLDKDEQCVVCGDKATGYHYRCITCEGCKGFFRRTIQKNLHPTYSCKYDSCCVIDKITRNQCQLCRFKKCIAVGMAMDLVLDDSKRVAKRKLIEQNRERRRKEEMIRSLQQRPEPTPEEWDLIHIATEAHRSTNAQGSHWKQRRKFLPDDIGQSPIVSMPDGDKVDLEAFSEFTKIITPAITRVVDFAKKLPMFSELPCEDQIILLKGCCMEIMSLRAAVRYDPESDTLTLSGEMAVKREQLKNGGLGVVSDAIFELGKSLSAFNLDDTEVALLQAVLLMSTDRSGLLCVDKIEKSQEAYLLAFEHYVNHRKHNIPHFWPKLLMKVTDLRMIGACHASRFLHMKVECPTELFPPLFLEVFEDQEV
# Biological target: T1, human thyroid hormone receptor α …
# Test: Far Western: 35S-labelled TRα on blotted TR-TRAP complex (TRAP100 is one of the other TRAPs)
# Protocol: For coimmunoprecipitation (7), 2 μl of anti-FLAG M2 affinity gel (Kodak) and 3 μl of ^35S-labeled input proteins were used. For Far Western analyses, 500 ng of purified TR-TRAP complex was resolved by SDS-PAGE and transferred onto a nitrocellulose membrane. The blots were probed with in vitro translated, ^35S-labeled human TRα-1 or TRα-1 C-terminus (residues 122–410) in the presence and absence of 10^-7 M T_3.
# Figure 7A: FIG. 7. Ligand-dependent interaction between TRα and TRAP220. (A) Far Western. 500 ng of purified TR-TRAP complex was separated by SDS-PAGE (8% gel), blotted and probed with ^35S-labeled full length (TR) and C-terminal (TRα-C) hTRα in the presence and absence of 10^-7 M […] (T_3). The arrow head indicates the position of the TRAP220 band. (B) Co-immunoprecipitation of TR-TRAP220 from in vitro translated products. The indicated combinations of ^35S-labeled TRAP220, TRAP100 and FLAG-TRα were incubated in the presence and absence of […] (T_3), and subjected to immunoprecipitation with anti-FLAG antibodies (M2 agarose) that recognizes only FLAG-tagged TRα. Figure 7B: Figure 8A: FIG. 8. Nuclear hormone receptor interactions with […] and TRAP100. (A) Ligand-dependent interactions of GST-TRAP220/1 and 2 with ^35S-labeled TRα. […]
binder,measurement,value
Thyroid Receptor-associated protein (TRAP) 100 (other) MKVVNLKQAILQAWKERWSDYQWAINMKKFFPKGATWDILNLADALLEQAMIGPSPNPLILSYLKYAISSQMVSYSSVLTAISKFDDFSRDLCVQALLDIMDMFCDRLSCHGKAEECIGLCRALLSALHWLLRCTAASAERLREGLEAGTPAAGEKQLAMCLQRLEKTLSSTKNRALLHIAKLEEASSWTAIEHSLLKLGEILANLSNPQLRSQAEQCGTLIRSIPTMLSVHAEQMHKTGFPTVHAVILLEGTMNLTGETQSLVEQLTMVKRMQHIPTPLFVLEIWKACFVGLIESPEGTEELKWTAFTFLKIPQVLVKLKKYSHGDKDFTEDVNCAFEFLLKLTPLLDKADQRCNCDCTNFLLQECGKQGLLSEASVNNLMAKRKADREHAPQQKSGENANIQPNIQLILRAEPTVTNILKTMDADHSKSPEGLLGVLGHMLSGKSLDLLLAAAAATGKLKSFARKFINLNEFTTYGSEESTKPASVRALLFDISFLMLCHVAQTYGSEVILSESRTGAEVPFFETWMQTCMPEEGKILNPDHPCFRPDSTKVESLVALLNNSSEMKLVQMKWHEACLSISAAILEILNAWENGVLAFESIQKITDNIKGKVCSLAVCAVAWLVAHVRMLGLDEREKSLQMIRQLAGPLFSENTLQFYNERVVIMNSILERMCADVLQQTATQIKFPSTGVDTMPYWNLLPPKRPIKEVLTDIFAKVLEKGWVDSRSIHIFDTLLHMGGVYWFCNNLIKELLKETRKEHTLRAVELLYSIFCLDMQQVTLVLLGHILPGLLTDSSKWHSLMDPPGTALAKLAVWCALSSYSSHKGQASTRQKKRHREDIEDYISLFPLDDVQPSKLMRLLSSNEDDANILSSPTDRSMSSSLSASQLHTVNMRDPLNRVLANLFLLISSILGSRTAGPHTQFVQWFMEECVDCLEQGGRGSVLQFMPFTTVSELVKVSAMSSPKVVLAITDLSLPLGRQVAAKAIAAL,binding result,no binding
